Experimental data: the supplement of paper PMC10567573
± gives the standard deviation.

Assay: protein stability index of a GFP-peptide fusion (GPS, HEK-293T) (PSI 1-6); higher = more stable
Conditions: c terminus: a fixed tail appended
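Note: 24-mer peptide tiles fused after GFP, lentivirally expressed, FACS-sorted into six equal bins by GFP/DsRed ratio, decoded by Illumina sequencing, PSI is the read-weighted mean bin number.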

Sequence | protein stability index (treatment: DMSO) | protein stability index (treatment: MLN4924 1 uM, 8 h)
HCKAGLGRTGTLIACYVMKHYRFT [CDC14A] | 3.52 ± 0.52 | 2.76 ± 0.37
LFVLELEWVLSTGQDKQFAWHCSE [WDFY2] | 2.99 ± 0.34 | 2.77 ± 0.72
AFEPEALGNLVEGMDFHRFYFENA [CAMK2D] | 2.86 ± 0.44 | 2.78 ± 0.54
TEIEEELKSLDKEISEAFTSTGFD [BCL2L13] | 5.16 ± 0.27 | 5.26 ± 0.34
GYSLADWVCLAYFTSGFNAAALDY [SPACA3] | 3.33 ± 0.44 | 2.98 ± 0.13
PAEDPDDYDDGFSMKHTATARFQR [SMARCE1] | 4.81 ± 0.13 | 4.89 ± 0.17
PLLLKEILKHTPKEHPDVQLLEDA [NET1] | 3.82 ± 0.41 | 4.06 ± 0.21
GSPEQLQIPVTDSGRHILEDSCAE [SDE2] | 5.18 ± 0.27 | 5.5 ± 0.35
DFTLSKTNMARIREIMEKFGKQPV [CPXM2] | 2.71 ± 0.088 | 2.62 ± 0.33
IDEQDSYIQSRADTMQNIESTIVE [STX5] | 5.23 ± 0.31 | 5.14 ± 0.12
LSATIGSILRELDTSMDGTEPPQN [SERTAD3] | 4.1 ± 0.15 | 4.26 ± 0.33
NNQSDLEKEMQKMNPYKIDIGAVY [PRIM1] | 3.03 ± 0.24 | 3.03 ± 0.16
AFHPLFSLTSGACRLDYRRPENRS [TCF25] | 2.29 ± 0.41 | 2.24 ± 0.24
IAPVLKLASHHNHFSQIVIFMLCT [OR10K2] | 3.25 ± 0.75 | 3.2 ± 0.83
SSGSFCYCHPDSETDEDEEEGDEQ [GMCL1] | 5.52 ± 0.17 | 5.39 ± 0.14
FEGEGDYEEGMYADWWQEPDAKGD [P3H4] | 5.31 ± 0.12 | 5.35 ± 0.16
RGLSQNLFSNSDHQRDGTLGALHT [SASS6] | 3.87 ± 0.26 | 3.81 ± 0.17
KVHTVPKPGKGADLSKPPCRKAKE [ATE1] | 4.94 ± 0.24 | 5.125 ± 0.046
VIKISYSTPQGKGEVVKIPSRVHG [PWWP2B] | 2.5 ± 0.2 | 2.79 ± 0.3
RFNQAILVSRHDPASRRRVVEEVR [LPCAT4] | 3.62 ± 0.25 | 3.59 ± 0.29
GEFRTGKTQICHTLAVTCQLPIDR [RAD51] | 2.73 ± 0.52 | 3.02 ± 0.29
QRDLSPTAEDAELSDFEECEETGE [FCHSD1] | 5.55 ± 0.21 | 5.54 ± 0.21

Sequence | protein stability index (treatment: DMSO) | protein stability index (treatment: MLN4924 1 uM, 8 h)
LTAKQLIKSIVEASKGCQLGKTEQ [TRIM63] | 2.57 ± 0.18 | 2.38 ± 0.6
GRDWRHLPTITSELSGAPRCHTVP [PXN] | 3.44 ± 0.48 | 3.51 ± 0.17
ICDPGLTSFEPEALGNLVEGMDFH [CAMK2B] | 3.92 ± 0.23 | 4.07 ± 0.13
LLDKLAKENQDIRLLQAQLQAQKE [PBXIP1] | 4.37 ± 0.33 | 4.21 ± 0.27
AVLRRIQLQPTSIEKEVFPIMAKE [GMPPB] | 2.52 ± 0.33 | 2.57 ± 0.36
MEDSPLPDLRDIELKLGRKVPESL [LURAP1L] | 4.68 ± 0.2 | 4.63 ± 0.23
TGEDSAFQEPDSPLPPARSPTEPG [WEE1] | 5.62 ± 0.15 | 5.44 ± 0.34
IGVGLGFELQRLEFDLSPLNLDIG [AASDHPPT] | 2.3 ± 0.55 | 2.29 ± 0.24
RAILKPRKVCVGGKRRKDEISVDS [PPP2R2B] | 3.85 ± 0.19 | 4.1 ± 0.12
ESSQKYKEGKYIIELNHMIKDNGW [YPEL3] | 3.04 ± 0.21 | 3.08 ± 0.27
IRISMSHEEEPLGTAGPLALARDL [GMPPB] | 3 ± 0.053 | 3.27 ± 0.34
RIVHLQETCDLGKIKPEARRYLEK [NLN] | 3.25 ± 0.51 | 3.66 ± 0.67
SLIEDLQRELEIPEQQVDMHDMLL [ZNF449] | 3.56 ± 0.35 | 3.51 ± 0.34
TFASLIGPFGGFFASGFKRAFKIK [CDS1] | 2.66 ± 0.73 | 1.85 ± 0.26
GEELADVGGVLRGLNHSLSYDVAL [SCARA5] | 3.4 ± 0.17 | 3.41 ± 0.21
LVNTSENLSKSRKILRSMSRKVTT [VTI1B] | 3.33 ± 0.29 | 3.57 ± 0.22
MMMMGPKEEEQSCEYETRLPGNHS [ZNF232] | 4.51 ± 0.48 | 4.64 ± 0.4
RLQCPFEQELLRRQQRLNQLEKPP [FAM107A] | 3.93 ± 0.33 | 4.14 ± 0.18
LVVMAPSPSESSETVLALVNCISP [DENND6A] | 2.4 ± 0.32 | 2.15 ± 0.19
FYQSPYDSEQVPQALRRLRPRTRK [NCF4] | 4.63 ± 0.37 | 4.68 ± 0.3
PSSSSIHNGDMEKILLDAQHESGQ [BNIP3L] | 5.12 ± 0.14 | 5.27 ± 0.096
HYWELDVDNSCDWALGVCNNSWIR [TRIM43] | 2.25 ± 0.21 | 2.2 ± 0.34

Sequence | protein stability index (treatment: DMSO) | protein stability index (treatment: MLN4924 1 uM, 8 h)
KPYGCVECGKAFSRSSILVQHQRV [ZNF24] | 2.07 ± 0.17 | 2.11 ± 0.2
RHCPYLDTINRSVLDFDFEKLCSI [USP39] | 2.61 ± 0.23 | 2.56 ± 0.3
RPAFVRVRRGHSHLAPSEAKAADS | 4.35 ± 0.1 | 4.45 ± 0.16
IGPIHLNEIQCTGNEKSIIDCKFN [LOXL2] | 3.63 ± 0.15 | 3.67 ± 0.23
HLNRGNHEDHMVNLRYGFTKEVMN [PPEF2] | 2.99 ± 0.3 | 3.16 ± 0.42
PGFGCKAVRCASGRCTVRDFIHRH [SDE2] | 2.08 ± 0.43 | 2.14 ± 0.46
LWWIAPGDETAHRIDSQFLIGDTL [MYORG] | 1.95 ± 0.23 | 2.06 ± 0.43
VTAEVDLFGDAFAASPGEAPAASE [SNAP91] | 5.02 ± 0.26 | 5.02 ± 0.16
LLEEGGLVQVESVNLQVATYSKFQ [UFD1] | 2.85 ± 0.32 | 2.9 ± 0.31
AAETASLEEQLQGWGEVMLMADKV [ARL6IP1] | 4.53 ± 0.082 | 4.45 ± 0.19
PECGEIFAHSSNLLRHQRIHTGER [ZNF263] | 3.88 ± 0.24 | 3.91 ± 0.073
LRQLRELEEQFALEAGGYQAGAAR [PRPH] | 4.07 ± 0.3 | 4.24 ± 0.084
EENRLREELRQEWEAKQEKIKSEE [FAM50A] | 5.59 ± 0.14 | 5.52 ± 0.21
IHERTHERERLYPFSECGEAVSDS [ZNF263] | 4.81 ± 0.41 | 4.88 ± 0.22
TMTSSQSMNFSMMSTNTVGLGLPM [CLINT1] | 3.02 ± 0.18 | 2.68 ± 0.083
QAYLDDCHRRYSCAHCRAHLANHD [YPEL3] | 2.68 ± 0.43 | 2.45 ± 0.39
DQFSALGLDPCLLEDELDKSVQGT [SLC6A17] | 5.18 ± 0.14 | 5.19 ± 0.14
RNGHAKVVRLLLEHYRVQTQQTGT [FEM1B] | 2.32 ± 0.21 | 2.3 ± 0.28
SSIVWRFVEDSFDPNINPTIGASF [RAB22A] | 2.31 ± 0.57 | 1.71 ± 0.47
WSPSPPATPEQGLSAFYLSYFDML [SPDEF] | 2.14 ± 0.45 | 2.33 ± 0.48
EFYHDEFKRWIYLNDQNLCIPASS [GAN] | 2.75 ± 0.28 | 2.74 ± 0.13
